# According to patent publication US20220363718A1 (Bicycle, published 2022):
# *1 amine or outer side, *2 acyl side, *3 side chain or, on linkers, in order; H or OH if unused. Bridges are numbered along the chain shown (N, C = ends). Where no end group is shown, it is not given here. [ ]: non-standard residue; d: D form. TATA = O=C(CC[*:1])N1CN(C(=O)CC[*:2])CN(C(=O)CC[*:3])C1; Trp(1-Me) = Cn1cc(C[C@H](N)C(=O)O)c2ccccc21; Arg(Me2a) = CN(C)C(=N)NCCC[C@H](N)C(=O)O; Lys(Me3) = C[N+](C)(C)CCCC[C@H](N)C(=O)O; Phe(4-F) = N[C@@H](Cc1ccc(F)cc1)C(=O)O; 1Nal = N[C@@H](Cc1cccc2ccccc12)C(=O)O; Ala(cPent) = N[C@@H](CC1CCCC1)C(=O)O; Ala(cPr) = N[C@@H](CC1CC1)C(=O)O; tBuAla = CC(C)(C)C[C@H](N)C(=O)O; NMeA = CN[C@@H](C)C(=O)O
# B1: Example 44 (peptide)
# peptide: Ac-CQW[tBuAla]EDCWRGFC
# modifications: linker 1-7-12 via TATA; not fully specified (C-terminus); printed as Ac-CQW[tBuA]EDCWRGFC
# B2: Example 27 (peptide)
# peptide: CQXLEDCWRGXC
# modifications: not fully specified; N-term acetyl; CQ[Nal1]LEDCWRG[4-FPhe]C as printed; 3 Cys on TATA
# B3: Example 22 (peptide)
# peptide: CQWLEDCWRGXC
# modifications: not fully specified; N-term acetyl; CQWLEDCWRG[3,4diFPhe]C as printed; 3 Cys on TATA
# B4: Example 41 (peptide)
# peptide: CQWLEDCWRGXC
# modifications: not fully specified; N-term acetyl; CQWLEDCWRG[3-F,4-ClPhe]C as printed; 3 Cys on TATA
# B5: Example 74 (peptide)
# peptide: CQWLEDCWRGXC
# modifications: not fully specified; N-term acetyl; CQWLEDCWRG[3-MePhe]C as printed; 3 Cys on TATA
# B6: Example 38 (peptide)
# peptide: CQXLEDCWXGXC
# modifications: not fully specified; N-term acetyl; CQ[Nal1]LEDCW[ADMA]G[4-FPhe]C as printed; 3 Cys on TATA
# B7: Example 26 (peptide)
# peptide: CQWLEDCWRGXC
# modifications: not fully specified; N-term acetyl; CQWLEDCWRG[4-BrPhe]C as printed; 3 Cys on TATA
# B8: Example 37 (peptide)
# peptide: CQWLEDCWRGXC
# modifications: not fully specified; N-term acetyl; CQWLEDCWRG[3,4,5triFPhe]C as printed; 3 Cys on TATA
# B9: Example 80 (peptide)
# peptide: Ac-CQW[Ala(cPr)]EDCWRGFC
# modifications: linker 1-7-12 via TATA; not fully specified (C-terminus); printed as CQW[CproA]EDCWRGFC
# Target: TSLP (as used in the human PBMC assay) (UniProt Q969D9 29-159)
# Assay: cell-based or functional assay
Binder,"CCL17 % Inhibition @ 10 µM, 50 pM TSLP [%]","CCL17 % Inhibition @ 10 µM, 666 pM TSLP [%]","CCL17 % Inhibition @ 10 µM, 400 pM TSLP [%]"
Ac-C[NMeA][Trp(1-Me)][tBuAla]QDC[Trp(1-Me)][Arg(Me2a)]G[Phe(4-F)]C (linker 1-7-12 via TATA) [Example 18],89,–,–
CQXLEDCWRGXC (not fully specified; Ac-CQ[Nal1]LEDCWRG[4-FPhe]C; 3 Cys cyclised with TATA),–,33,–
Ac-ACQWLEDCWRGFCPLD (linker 2-8-13 via TATA),–,-2,–
CQWXEDCWRGXC (not fully specified; Ac-CQW[tBuA]EDCWRG[4-FPhe]C; 3 Cys cyclised with TATA) [Example 4],47,–,–
CQWLEDCWRGXC (not fully specified; Ac-CQWLEDCWRG[4-FPhe]C; 3 Cys cyclised with TATA) [Example 17],1,–,–
TMEYRDCQWLEDCWRGFCA (linker 7-13-18 via TATA) [Example 56],–,40,–
GTDSAECQWLEDCWRGFCA (linker 7-13-18 via TATA) [Example 45],–,0,–
YATTQVCRDLDPWTCSSWWLCA (linker 7-15-21 via TATA) [Example 171],–,36,–
ACRDLDPWTCSSWWLCANV (linker 2-10-16 via TATA) [Example 186],–,-1,–
ACRDLDPWTCSSWWLCADGLYDA (linker 2-10-16 via TATA) [Example 193],–,47,–
ACDWHWEYDCWLSCA (linker 2-10-14 via TATA) [Example 199],–,-3,–
"ACHWLEDCWRGFCHLE (linker 2-8-13 via TATA; not fully specified (C-terminus)) [Example 75, listing 1 of 2 here]",–,-2,–
ACQWLEDCWRGFCADGDML (linker 2-8-13 via TATA) [Example 42],< 20,47,–
CQWLEDCWRGXC (not fully specified; Ac-CQWLEDCWRG[Nal1]C; 3 Cys cyclised with TATA) [Example 47],–,-7,–
AHPCADLDPWTCPNWWLCA (linker 4-12-18 via TATA; not fully specified (C-terminus)) [Example 165],–,33,–
"CQWLEDCWRGXC (not fully specified; Ac-CQWLEDCWRG[3,4diFPhe]C; 3 Cys cyclised with TATA)",41,–,–

Binder,"CCL17 % Inhibition @ 10 µM, 50 pM TSLP [%]","CCL17 % Inhibition @ 10 µM, 666 pM TSLP [%]","CCL17 % Inhibition @ 10 µM, 400 pM TSLP [%]"
CQWLEDCWRGXC (not fully specified; Ac-CQWLEDCWRG[Nal2]C; 3 Cys cyclised with TATA) [Example 50],–,33,–
"ACTWLEDCWRGFCADS (linker 2-8-13 via TATA) [Example 63, listing 1 of 2 here]",–,24,–
ACRDLDPWTCSSWWLCA (linker 2-10-16 via TATA; not fully specified (C-terminus)) [Example 164],–,0,–
CQWLEDCWRGXC (not fully specified; Ac-CQWLEDCWRG[3-ClPhe]C; 3 Cys cyclised with TATA) [Example 32],–,14,–
ACTWLDDCWRGFCA (linker 2-8-13 via TATA; not fully specified (C-terminus)),–,0,–
CQWLEDCWRGXC (not fully specified; Ac-CQWLEDCWRG[3-MePhe]C; 3 Cys cyclised with TATA),–,43,–
RAPCPDLDPWTCSDWWLCA (linker 4-12-18 via TATA) [Example 187],–,11,–
Ac-C[NMeA][1Nal][tBuAla]QDC[Trp(1-Me)][Arg(Me2a)]G[Phe(4-F)]C[dA] (linker 1-7-12 via TATA; not fully specified (C-terminus)) [Example 29],61,–,62
B1,–,52,–
Ac-C[NMeA][1Nal][tBuAla]QDC[Trp(1-Me)][Arg(Me2a)]G[Phe(4-F)]C (linker 1-7-12 via TATA; not fully specified (C-terminus)) [Example 25],71,–,–
Ac-CQWLEDCWRGFC (linker 1-7-12 via TATA) [Example 79],–,-18,–
CQWLEDCWRGXC (not fully specified; Ac-CQWLEDCWRG[4F3ClPhe]C; 3 Cys cyclised with TATA) [Example 8],71,–,–
ACQWLEDCWRGFCSSSDQS (linker 2-8-13 via TATA) [Example 59],–,2,–
ACQWLEDCWRGFCA (linker 2-8-13 via TATA) [Example 68],–,33,–
SHVCRDLDPWTCDSWWLCA (linker 4-12-18 via TATA) [Example 188],–,-4,–
"SPPCVWLDDCWRGFCA (linker 4-10-15 via TATA) [Example 73, listing 1 of 2 here]",–,-11,–

# Target: T1, Biotinylated human TSLP (human, biotinylated)
# T1 construct: also called hTSLP; thymic stromal lymphopoietin
# T1 sequence (chain, as listed by the source limits assumed): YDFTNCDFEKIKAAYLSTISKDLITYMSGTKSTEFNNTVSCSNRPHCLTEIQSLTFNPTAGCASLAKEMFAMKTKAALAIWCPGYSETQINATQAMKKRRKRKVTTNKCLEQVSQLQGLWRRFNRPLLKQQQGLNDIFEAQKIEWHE
# Assay: SPR, biotinylated hTSLP on streptavidin chip
row,Binder,Kd [nM]
1,ACQWLEDCWRGFCDDAHAP (linker 2-8-13 via TATA) [Example 55],47
2,B2,12
3,ACTWLDDCWRGFCA (linker 2-8-13 via TATA),93
4,B3,9.7
5,B4,24
6,CQWLEDCWRGXC (N-term acetyl; CQWLEDCWRG[4-CF3Phe]C as printed; 3 Cys on TATA) [Example 77],93
7,B5,91
8,B6,20
9,CAXLEDCWXGXC (N-term acetyl; CA[Nal1]LEDCW[Harg]G[4-FPhe]C as printed; 3 Cys on TATA) [Example 62],63
10,Ac-CQWLEDCWRGFCAPDERD (linker 1-7-12 via TATA) [Example 54],46
11,Ac-CQW[Ala(cPent)]EDCWRGFC (linker 1-7-12 via TATA) [Example 65],70
12,B7,11
13,ETNNLECQWLEDCWRGFCA (linker 7-13-18 via TATA) [Example 71],82
14,B8,19
15,Ac-CQWLEDCW[Lys(Me3)]GFC (linker 1-7-12 via TATA; not fully specified (C-terminus)) [Example 81],100
16,SDEQRTCQWLEDCWRGFCA (linker 7-13-18 via TATA) [Example 61],62
17,"ACHWLEDCWRGFCHLE (linker 2-8-13 via TATA; not fully specified (C-terminus)) [Example 75, listing 2 of 2 here]",92
18,B9,100
19,"SPPCVWLDDCWRGFCA (linker 4-10-15 via TATA) [Example 73, listing 2 of 2 here]",85
20,CQWLEDCXRGXC (N-term acetyl; CQWLEDC[4-ClNal]RG[4-FPhe]C as printed; 3 Cys on TATA) [Example 60],62
21,"ACTWLEDCWRGFCADS (linker 2-8-13 via TATA) [Example 63, listing 2 of 2 here]",65
22,Ac-ACQWLEDCWRGFCPLD (linker 2-8-13 via TATA; not fully specified (C-terminus)),43
